Several values for one entry are separate records, joined by “and”; a condition that tells them apart may be missing. Equal entries are not always repeated. Values belong to the molecule of their own block, whether it stands above or below them.
Legend:
mɑAXL (mouse) = assay: SPR
[1] = target: biotinylated lysozyme (GeneTex) (Gallus gallus (hen egg white), UniProt P00698, biotin); assay: flow cytometry on cells
[2] = target: hen-egg white lysozyme (Sigma) (Gallus gallus (hen egg white), UniProt P00698); assay: SPR
Chain of hen-egg white lysozyme (Sigma) (P00698 19-147): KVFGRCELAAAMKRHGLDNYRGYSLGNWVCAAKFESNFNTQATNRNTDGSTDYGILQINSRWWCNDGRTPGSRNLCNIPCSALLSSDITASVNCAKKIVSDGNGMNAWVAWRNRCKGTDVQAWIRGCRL

[3] = target: human Quiescin Sulfhydryl Oxidase 1 (residues 34–546 of HsQSOX1) (human, UniProt O00391); assay: enzyme inhibition
Chain of human Quiescin Sulfhydryl Oxidase 1 (residues 34–546 of HsQSOX1) (O00391 34-546): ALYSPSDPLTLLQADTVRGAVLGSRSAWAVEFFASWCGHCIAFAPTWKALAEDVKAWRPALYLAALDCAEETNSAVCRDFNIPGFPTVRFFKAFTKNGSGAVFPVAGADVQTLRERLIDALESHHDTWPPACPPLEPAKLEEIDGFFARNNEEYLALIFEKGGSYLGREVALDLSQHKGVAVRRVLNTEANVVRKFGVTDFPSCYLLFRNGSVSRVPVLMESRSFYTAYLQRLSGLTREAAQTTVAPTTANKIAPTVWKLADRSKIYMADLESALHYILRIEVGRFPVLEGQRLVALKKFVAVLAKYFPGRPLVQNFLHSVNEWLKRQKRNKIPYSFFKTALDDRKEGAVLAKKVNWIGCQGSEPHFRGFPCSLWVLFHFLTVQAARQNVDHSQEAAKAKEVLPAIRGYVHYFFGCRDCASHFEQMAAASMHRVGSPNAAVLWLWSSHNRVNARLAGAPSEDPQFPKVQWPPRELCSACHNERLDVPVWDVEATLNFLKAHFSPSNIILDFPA

Chain of biotinylated lysozyme (GeneTex) (P00698 19-147): as the sequence (P00698 19-147) above

- Kd [2]: 42 nM and 44 nM
- koff [2]: 0.16 s⁻¹
- kon [2]: 3.9e+06 M⁻¹ s⁻¹
B2: hɑHEWL Fab (design 1 as a human IgG1 Fab) (Fab, V domains shown)
VH: EVQLVQSGAEVKKPGATVKISCKVSGYTFSTYWMEWVQQAPGKGLEWMGEVLPGSGSTYYAEKFQGRVTITADTSTDTAYMELSSLRSEDTAVYYCARGDGYFQHWGQGTLVTVSS
VL: DIQMTQSPSSLSASVGDRVTITCRASQSISSNLNWYQQKPGKAPKLLIYYASSLQSGVPSRFSGSGSGTDFTLTISSLQPEDFATYYCQQSNSWPRTFGPGTKVDIK

- binding result [3]: binds
B3: murine monoclonal antibody mAb492.1 (antibody, V domains shown)
VH: QVQLKQSGPGLVAPSQSLSITCTVSGFSLTGYGVNWVRQSPGKGLEWLGMIWGDGRTDYKSALKSRLSITKDNSKSQVFLKMNSLQTDDTARYFCASDYYGSGSFAYWGQGTLVTVSA
VL: DVVMTQSHKFMSTSVGDRVSITCKASQDVSTAVAWYQQKSGQSPKLLIHSASYRYTGVPDRFTGSGSGTDFTFTISSVQAEDLAVYYCQQHYSIPLTFGAGTKLELK

Second part, the molecule before the results:

Molecule: AXL (R&D systems) (from UniProt P30530) (receptor)
- Kd (mɑAXL (mouse)): 0.95 nM
- koff (mɑAXL (mouse)): 0.000524 s⁻¹
- kon (mɑAXL (mouse)): 550000 M⁻¹ s⁻¹

B1: CUMAb design 6 of D44.1 formatted as scFv (scFv, V domains shown)
VH: EVQLVQSGAEVKKPGATVKISCKVSGYTFSTYWMEWVQQAPGKGLEWMGEVLPGSGSTYYAEKFQGRVTITADTSTDTAYMELSSLRSEDTAVYYCARGDGYFQHWGQGTLVTVSS
VL: EIVLTQSPDFQSVTPKEKVTITCRASQSISSNLHWYQQKPDQSPKLLIKYASQSFSGVPSRFSGSGSGTDFTLTINSLEAEDAATYYCHQSNSWPRTFGPGTKVDIK
- binding result [1]: binds

Source: paper doi:10.1101/2022.08.14.503891 (bioRxiv, 2022)
